Assay results taken from PMC10127613 (mBio, 2023).

Tests used:
Clr [1] = molecular target: T1, Clr (Sinorhizobium meliloti, UniProt Q92SD2); test: isothermal titration calorimetry; assay type: binding
T1 construct: gene SMc02175

[2] = molecular target: Sinorhizobium meliloti Clr, C-terminally His6-tagged (Sinorhizobium meliloti); test: SEC; apo-Clr in solution (no cNMP, no DNA); dimer to monomers
[3] = molecular target: Sinorhizobium meliloti Clr, C-terminally His6-tagged (Sinorhizobium meliloti); test: crystal structure; Clr (0.25 or 0.44 mM) with 25 mM cAMP or cGMP, 25 mM MgCl2 and 1.25-fold excess of 19-mer/14-mer duplex CBS-DNA; sitting-drop vapor diffusion, 291 K (cAMP) or 281 K (cGMP)
Clr [4] = molecular target: T2, Clr (Sinorhizobium meliloti, UniProt Q92SD2 1-234); test: ITC; 1 mM cAMP; EMSA: 2 mM HEPES pH 7.0, 30 mM NaCl, 50 mM KCl, 850 ng salmon sperm DNA, 1 ug BSA, 20 ng Cy3-DNA, 3 ug Clr in 10 uL, 1 mM cAMP, room temperature. ITC: 20 mM HEPES, 300 mM NaCl, 20 mM MgCl2, pH 7.0, 25 C; details: protein: recombinant; tags: C-terminal His6 (pET36b, NdeI/XhoI); chain copies: 2; two copies of each strand; duplex arms joined by palindromic 5' overhang CTAG (4 nt) of the 19-mer, 1 nt 3' overhang G; nicked
T2 sequence: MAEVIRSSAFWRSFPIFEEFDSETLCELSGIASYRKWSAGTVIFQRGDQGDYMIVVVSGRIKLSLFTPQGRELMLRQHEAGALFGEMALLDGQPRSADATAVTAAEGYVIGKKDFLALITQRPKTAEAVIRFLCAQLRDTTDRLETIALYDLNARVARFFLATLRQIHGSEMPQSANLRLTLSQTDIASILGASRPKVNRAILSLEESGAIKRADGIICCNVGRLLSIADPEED

## Nc1nc2c(ncn2[C@@H]2O[C@@H]3COP(=O)(O)O[C@H]3[C@H]2O)c(=O)[nH]1 [cGMP]
Clr [1]
  Kd: 23.8 ± 14.5 µM

## Sinorhizobium meliloti Clr, C-terminally His6-tagged
[2]
  percent in the monomeric state: 86%
  stoichiometry N: 2

## Sinorhizobium meliloti Clr, C-terminally His6-tagged (natural protein)
[3]
  stoichiometry N: 2

B1: CBS-DNA, two identical 19-mer/14-mer duplexes joined by palindromic CTAG sticky ends (nicked 33-nt) (dsDNA)
DNA 1: CTAGGTAACATTACTCGCG
DNA 2: GCGAGTAATGTTAC
DNA 3: CTAGGTAACATTACTCGCG
DNA 4: GCGAGTAATGTTAC
Clr [4]
  Kd: 6 ± 4.7 µM
